From EP3988566A1 come the findings set out here.

For one test, the target named is amyloid beta 1-42 fibers (UniProt P05067). In words: cell-based or functional assay.
Test [1] deals with amyloid beta 1-42 monomers (UniProt P05067). In words: cell-based or functional assay.
Chain of amyloid beta 1-42 monomers (P05067 672-713 limits assumed): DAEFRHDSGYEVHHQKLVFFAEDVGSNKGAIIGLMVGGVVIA

Chain of amyloid beta 1-42 fibers (P05067 672-713 limits assumed): as above

Turning to “humanized anti-human amyloid beta monoclonal antibody hC2”, in the test with amyloid beta 1-42 fibers, the disaggregation of pre-aggregated Aβ1-42, thioflavin T assay, antibody to Aβ1-42 molar ratio 1:10 is 31.9% and the disaggregation of pre-aggregated Aβ1-42, thioflavin T assay, antibody to Aβ1-42 molar ratio 1:100 was determined as 23.9%. Further, in test [1], the inhibition of Aβ1-42 aggregation, thioflavin T assay, antibody to Aβ1-42 molar ratio 1:10 turned out to be 80.4% and the inhibition of Aβ1-42 aggregation, thioflavin T assay, antibody to Aβ1-42 molar ratio 1:100 is 30%.
